According to patent publication US20120171195A1:

Assays:
HLA-B*6701 (B67) (human) = HLA-B*6701 (B67) (human) (UniProt P01889); assay: Luminex single-antigen beads; rank of MEM-E/02 reactivity among HLA-Ia alleles
HLA-B*5801 (human) = assay: Luminex beads; MAb 1/200; PBS only
HLA-B*1401 (human) = HLA-B*1401 (human) (UniProt P01889); assay: Luminex beads; MAb 1/200; PBS only
HLA-B*4006 (human) = HLA-B*4006 (human) (UniProt P01889); assay: Luminex beads; MAb 1/200; PBS only
HLA-B*4501 (human) = assay: Luminex beads; MAb 1/200; PBS only
HLA-Cw*0501 (human) = assay: Luminex beads; MAb 1/200; PBS only
HLA-Cw*0202 (human) = assay: Luminex beads; MAb 1/200; PBS only
HLA-Cw*1802 (human) = HLA-Cw*1802 (human) (UniProt P10321); assay: Luminex beads; MAb 1/200; PBS only
HLA-Cw*1701 (human) = assay: Luminex beads; MAb 1/200; PBS only

Substance | MEM-E/02 Reactivity Rank (HLA-B*6701 (B67) (human)) [rank] | MFI (HLA-B*5801 (human)) [MFI] | MFI (HLA-B*1401 (human)) [MFI] | MFI (HLA-B*4006 (human)) [MFI] | MFI (HLA-B*4501 (human)) [MFI] | MFI (HLA-Cw*0501 (human)) [MFI] | MFI (HLA-Cw*0202 (human)) [MFI] | MFI (HLA-Cw*1802 (human)) [MFI] | MFI (HLA-Cw*1701 (human)) [MFI]
murine monoclonal antibody MAb MEM-E/02 | > 65 | – | – | – | – | – | – | – | –
murine monoclonal antibody (MAb) MEM-E/02 | – | 2830 | 5330 | 7010 | 3670 | 5830 | 3020 | 8830 | 2270
